Measured values published in the supplement of paper PMC7125110.
± gives the standard error. Fewer inactive variants are shown than the library holds.

B1: glmS ribozyme (parent)
chain: AUAAAAGCGCCAGAACUACAGAAAUGUAGUUGACGAGGAGGAGGUUUAUCGAAUUUUCGGCGGAUGCCUCCAAA

Assays:
Settings in all cases: with glucosamine-6-phosphate
[1] = variants of: B1; test: self-cleavage kobs at 40 uM GlcN6P; higher = faster cleavage; RNA array
How it was run: (§1)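 Sequenced MiSeq chips were the platform: E. coli RNA polymerase transcribed barcoded ribozyme variants on them in situ, and a hybridised Cy3 probe tracked these at 37 °C. After glucosamine-6-phosphate (40 μM to 10 mM) in HEPES/KCl/Mg(OAc)2 buffer was flowed in, tiles were imaged over ~14 h. Signals normalised to baseline and to non-cleaving reference variants were reduced to per-tile medians and fit to one- or two-exponential decays to obtain kobs. kcat and KM were derived through weighted Michaelis–Menten fits across concentrations.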

[2] = variants of: B1; test: self-cleavage kobs at 160 uM GlcN6P; higher = faster cleavage; RNA array
How it was run: as §1

[3] = variants of: B1; test: self-cleavage kobs at 640 uM GlcN6P; higher = faster cleavage; RNA array
How it was run: as §1

[4] = variants of: B1; test: self-cleavage kobs at 2500 uM GlcN6P; higher = faster cleavage; RNA array
How it was run: as §1

[5] = variants of: B1; test: self-cleavage kobs at 10000 uM GlcN6P; higher = faster cleavage; RNA array
How it was run: as §1

Variant | self-cleavage kobs at 40 uM GlcN6P [1] [s⁻¹] | self-cleavage kobs at 160 uM GlcN6P [2] [s⁻¹] | self-cleavage kobs at 640 uM GlcN6P [3] [s⁻¹] | self-cleavage kobs at 2500 uM GlcN6P [4] [s⁻¹] | self-cleavage kobs at 10000 uM GlcN6P [5] [s⁻¹]
AUAAAAGCGCCAGAACUACAGAAAUGUAGUUGACGAGGAGGGGGUUUAUCGAAUUUUCGGCGAAUGCCUCCAAA [A42G G63A] | < 1e-05 | < 1e-05 | < 1e-05 | < 1e-05 | < 1e-05
AUAAAAGCGCCAGAACUACAGAAAUGUAGUUGACGAGGAGGAGGGUUAUCGAAUUUUUGGCGGAUGCCUCCAAA [U45G C58U] | < 1e-05 | < 1e-05 | – | – | –
AUAAAAGCGCCAGAACUACAGAAAUGUAGUUGACGAGGUGGAGGAUUAUCGAAUUUUCGGCGGAUGCCUCCAAA [A39U U45A] | 0.000759 ± 9.8e-05 | 0.00209 ± 0.00053 | 0.0067 ± 0.0015 | 0.0135 ± 0.0033 | 0.0807 ± 0.02
AUAAAAGCGCCAGAACUACAGAAAUGUAGUUGACAAGGAGGAGGAUUAUCGAAUUUUCGGCGGAUGUCUCCAAA [G35A U45A C67U] | < 1e-05 | – | – | – | < 1e-05
AUAAAAGCGCCAGAACUACAGAAAUGUAGUUGACGAGGAGGAGGUUAAUCGAAUUUUCGGCGGAUGCCUUCAAA [U47A C70U] | 0.000803 ± 0.00012 | 0.00118 ± 0.00023 | 0.0018 ± 0.00029 | 0.00221 ± 0.00048 | 0.00993 ± 0.0023
AUAAAAGCGCCAGAACUACAGAAAUGUAGUUGACGAGGAGGAUGUUUAUCGAAUUUUCGGCGGUUGCCUCCAAA [G43U A64U] | < 1e-05 | – | < 1e-05 | < 1e-05 | < 1e-05
AUAAAAGCGCCAGAACUACAGAAAUGUAGUUGACGAGGAGGAGGUUUAUCGAAUUUUCCGCGGAUGCCUCUAAA [G59C C71U] | < 1e-05 | < 1e-05 | < 1e-05 | < 1e-05 | < 1e-05
AUAAAAGCGCCAGAACUACAGAAAUGUAGUUGACCAGGAGGAGGUUUAUCGAAUUUUCGGCGGAUCCCUCCAAA [G35C G66C] | < 1e-05 | < 1e-05 | < 1e-05 | < 1e-05 | < 1e-05
AUAAAAGCGCCAAAACUACAGAAAUGUAGUUGACGAGGAGGAGGUUUAUAGAAUUUUCGGCGGAUGCCGCCAAA [G13A C50A U69G] | 4.48e-05 ± 2.2e-05 | – | – | – | –
AUAAAAUCGCCUGAACUACAGAAAUGUAGUUGACGAGGAGGAGGUUUAUCGGAUGUUCGGCGGAUGCCUCCAAA [G7U A12U A52G U55G] | < 1e-05 | – | – | – | < 1e-05
